In the assay the target is T1, CXCR4 (UniProt P61073 1-352).
T1 construct: whole, on cells; also called X4
Nature of the assay: western blot binding assay on CXCR4-transfected cells. On the technique in general: A western blot detects proteins with antibodies after separation by electrophoresis.

T1 sequence (P61073 whole entry): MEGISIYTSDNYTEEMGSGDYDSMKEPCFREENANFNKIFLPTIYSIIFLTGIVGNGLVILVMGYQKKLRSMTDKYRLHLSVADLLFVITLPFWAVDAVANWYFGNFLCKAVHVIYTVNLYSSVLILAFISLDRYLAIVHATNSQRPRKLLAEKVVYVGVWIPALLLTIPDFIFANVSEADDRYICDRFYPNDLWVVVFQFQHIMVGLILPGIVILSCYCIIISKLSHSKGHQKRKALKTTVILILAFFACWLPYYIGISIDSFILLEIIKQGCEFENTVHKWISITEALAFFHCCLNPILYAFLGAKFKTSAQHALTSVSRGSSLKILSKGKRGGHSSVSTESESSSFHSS

B1: HIV-2/VCP gp120 (other)
chain: KQFVTVFYGIPAWRNASIPLFCATKNRDTWGTIQCLPDNDDYQEIALNVTEAFDAWNNTVTEQAVEDVWNLFETSIKPCVKLTPLCVAMNCTRNMTTSTGTTDTQNITIINDTSPCVRADNCTGLKEEEMVDCQFNMTGLERDKRKQYTEAWYSKDVICDNNTSSRSKCYMNHCNTSVITESCDKHYWDAMRFRYCAPPGFALLRCNDTNYSGFAPNCSKVVAATCTRMMETQSSTWFGFNGTRAENRTYIYWHGKNNRTIISLNNFYNLTMHCKRPGNKTVLPIMSGFKFHSKPVINKKPRQAWCWFKGEWKEAMQEVKETLAKHPRYKGNRSRTENIKFKAPGRGSDPEAAYMWTNCRGEFLYCNMTWFLNWVDNRTGQKQRNYAPCHIRQIINTWHRVGKNVYLPPREGELTCNSTVTSIIANIDTGDQTDITFSAEVAELYRLELGDYKLVEITPIGFAPTSVKRYSSAHQRHTR
notes: also called gp120 Env of HIV-2/VCP
B1: the binding result is “binds”.

The record behind these values is patent US20050064392A1 (TRUSTEES OF THE UNIVERSITY OF PENNYLVANIA, published 2005).
